Data: the supplement of paper PMC5998384

Legend:
HeLa Kyoto [1] = assay: solubility change mitosis vs G1/S (difference of NP-40 vs SDS log2 ratios) (log2 ratio difference); higher = more soluble in mitosis
HeLa Kyoto [2] = assay: melting temperature (median over replicates), in situ; higher = more thermally stable
HeLa Kyoto [3] = assay: thermal stability score vs G1/S (z-score of summed log2 fold changes over temperatures); higher = more thermally stable than in G1/S
HeLa Kyoto [4] = assay: solubility in G1/S (NP-40 vs SDS abundance) (log2 ratio); higher = more soluble; conditions: cell cycle stage: G1/S
[5] = cell cycle stage: early G1 (4.5 h after nocodazole release)
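Wherever melting temperature (median over replicates), in situ is given: HeLa Kyoto cells synchronized by double thymidine or nocodazole block, proteins quantified by TMT10plex mass spectrometry, three independent biological replicates.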
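Wherever solubility change mitosis vs G1/S (difference of NP-40 vs SDS log2 ratios) is given: synchronized HeLa Kyoto cells (double thymidine block for G1/S, nocodazole release for mitosis), protein amounts in NP-40 versus SDS lysates quantified by mass spectrometry, three biological replicates.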
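Wherever solubility in G1/S (NP-40 vs SDS abundance) is given: HeLa Kyoto cells arrested at G1/S by double thymidine block, proteins quantified by TMT10plex mass spectrometry in mild NP-40 versus SDS extracts, three biological replicates.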
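Wherever thermal stability score vs G1/S (z-score of summed log2 fold changes over temperatures) is given: synchronized HeLa Kyoto cells, proteins quantified by TMT10plex mass spectrometry, three biological replicates, mitosis taken 0.5 h after nocodazole release, G1/S directly after double thymidine block.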

Sequence	solubility change mitosis (log2) (HeLa Kyoto [1])	melting temperature (HeLa Kyoto [2]; cell cycle stage: G1/S)	melting temperature (HeLa Kyoto [2]; cell cycle stage: mitosis)	thermal stability score (HeLa Kyoto [3]; [5])	thermal stability score (HeLa Kyoto [3]; cell cycle stage: mitosis)	solubility in G1/S (log2) (HeLa Kyoto [4])
MKRRLDDQESPVYAAQQRRIPGSTEAFPHQHRVLAPAPPVYEAVSETMQSATGIQYSVTPSYQVSAMPQSSGSHGPAIAAVHSSHHHPTAVQPHGGQVVQSHAHPAPPVAPVQGQQQFQRLKVEDALSYLDQVKLQFGSQPQVYNDFLDIMKEFKSQSIDTPGVISRVSQLFKGHPDLIMGFNTFLPPGYKIEVQTNDMVNVTTPGQVHQIPTHGIQPQPQPPPQHPSQPSAQSAPAPAQPAPQPPPAKVSKPSQLQAHTPASQQTPPLPPYASPRSPPVQPHTPVTISLGTAPSLQNNQPVEFNHAINYVNKIKNRFQGQPDIYKAFLEILHTYQKEQRNAKEAGGNYTPALTEQEVYAQVARLFKNQEDLLSEFGQFLPDANSSVLLSKTTAEKVDSVRNDHGGTVKKPQLNNKPQRPSQNGCQIRRHPTGTTPPVKKKPKLLNLKDSSMADASKHGGGTESLFFDKVRKALRSAEAYENFLRCLVIFNQEVISRAELVQLVSPFLGKFPELFNWFKNFLGYKESVHLETYPKERATEGIAMEIDYASCKRLGSSYRALPKSYQQPKCTGRTPLCKEVLNDTWVSFPSWSEDSTFVSSKKTQYEEHIYRCEDERFELDVVLETNLATIRVLEAIQKKLSRLSAEEQAKFRLDNTLGGTSEVIHRKALQRIYADKAADIIDGLRKNPSIAVPIVLKRLKMKEEEWREAQRGFNKVWREQNEKYYLKSLDHQGINFKQNDTKVLRSKSLLNEIESIYDERQEQATEENAGVPVGPHLSLAYEDKQILEDAAALIIHHVKRQTGIQKEDKYKIKQIMHHFIPDLLFAQRGDLSDVEEEEEEEMDVDEATGAVKKHNGVGGSPPKSKLLFSNTAAQKLRGMDEVYNLFYVNNNWYIFMRLHQILCLRLLRICSQAERQIEEENREREWEREVLGIKRDKSDSPAIQLRLKEPMDVDVEDYYPAFLDMVRSLLDGNIDSSQYEDSLREMFTIHAYIAFTMDKLIQSIVRQLQHIVSDEICVQVTDLYLAENNNGATGGQLNTQNSRSLLESTYQRKAEQLMSDENCFKLMFIQSQGQVQLTIELLDTEEENSDDPVEAERWSDYVERYMNSDTTSPELREHLAQKPVFLPRNLRRIRKCQRGREQQEKEGKEGNSKKTMENVDSLDKLECRFKLNSYKMVYVIKSEDYMYRRTALLRAHQSHERVSKRLHQRFQAWVDKWTKEHVPREMAAETSKWLMGEGLEGLVPCTTTCDTETLHFVSINKYRVKYGTVFKAP [SIN3A]	-0.073	48.4 °C	49.5 °C	1.76	4.27	-0.136
MKRSGTLRLLSDLSAFGGAARLRELVAGDSAVRVRGSPDGRHLLLLRPPGAVAPQLLVASRGPGAELERAWPAGQPSPLDAFFLPWPARPALVLVWESGLAEVWGAGVGPGWRPLQSTELCPGGGARVVAVAALRGRLVWCEERQARAEGPSGSPAAAFSHCVCVRTLEPSGEASTSLGRTHVLLHHCPAFGLLASCRQLFLVPTATTWPGVAHVLLIWSPGKGKVMVAAPRLGLSYSKSLNPGRGDTWDFRTLLRGLPGLLSPREPLAVHTWAPTPQGLLLLDFGGTVSLLQSHGGTRAVGTLQEAPVGPWGSAALGTFQGTLACVLGSTLELLDMGSGQLLERKVLSTDRVHLLEPPAPGMEDEEELETRGNLRLLSALGLFCVGWEAPQGVELPSAKDLVFEEACGYYQRRSLRGAQLTPEELRHSSTFRAPQALASILQGHLPPSALLTMLRTELRDYRGLEQLKAQLVAGDDEEAGWTELAEQEVARLLRTELIGDQLAQLNTVFQALPTAAWGATLRALQLQLDGNGKLRSQAPPDVWKKVLGGITAGKEPPNGILPPFELLCQCLCQLEPRWLPPFVELAQQQGGPGWGAGGPGLPLYRRALAVLGEEGTRPEALELELLLSSGRPKAVLQAVGQLVQKEQWDRALDAGLALGPSSPLLRSEIFKLLLAEFAQHRRLDAHLPLLCRLCPPELAPAELLLLLRTYLPDEVGPPTPFPEPGAEPPLTVGLLKALLEQTGAQGWLSGPVLSPYEDILWDPSTPPPTPPRDL [HPS6]	-0.149	49.3 °C	49.1 °C	0.139	0.929	0.12
MKRSSVSSGGAGRLSMQELRSQDVNKQGLYTPQTKEKPTFGKLSINKPTSERKVSLFGKRTSGHGSRNSQLGIFSSSEKIKDPRPLNDKAFIQQCIRQLCEFLTENGYAHNVSMKSLQAPSVKDFLKIFTFLYGFLCPSYELPDTKFEEEVPRIFKDLGYPFALSKSSMYTVGAPHTWPHIVAALVWLIDCIKIHTAMKESSPLFDDGQPWGEETEDGIMHNKLFLDYTIKCYESFMSGADSFDEMNAELQSKLKDLFNVDAFKLESLEAKNRALNEQIARLEQEREKEPNRLESLRKLKASLQGDVQKYQAYMSNLESHSAILDQKLNGLNEEIARVELECETIKQENTRLQNIIDNQKYSVADIERINHERNELQQTINKLTKDLEAEQQKLWNEELKYARGKEAIETQLAEYHKLARKLKLIPKGAENSKGYDFEIKFNPEAGANCLVKYRAQVYVPLKELLNETEEEINKALNKKMGLEDTLEQLNAMITESKRSVRTLKEEVQKLDDLYQQKIKEAEEEDEKCASELESLEKHKHLLESTVNQGLSEAMNELDAVQREYQLVVQTTTEERRKVGNNLQRLLEMVATHVGSVEKHLEEQIAKVDREYEECMSEDLSENIKEIRDKYEKKATLIKSSEE [NDC80]	0.0863	47.4 °C	47.7 °C	0.223	0.715	0.548
